Measurements taken from paper PMC7195491.
Residue numbers refer to the chain shown, from its start. Numbers in names are those of the source. Each block holds one binder with its values, some of them ahead of it.

Legend:
Test in all cases: SPR
[1] = molecular target: T1, Dpr11 (Defective proboscis extension response 11), extracellular region, Q8MRE6; details: chain shown with the change; 25 °C; 10 mM Tris-HCl, pH 7.2, 150 mM NaCl, 1 mM EDTA, 1 mg mL−1 BSA, 0.01% (v/v) Tween-20; analyte 81 to 0.012 μM, three-fold dilution series
T1 chain: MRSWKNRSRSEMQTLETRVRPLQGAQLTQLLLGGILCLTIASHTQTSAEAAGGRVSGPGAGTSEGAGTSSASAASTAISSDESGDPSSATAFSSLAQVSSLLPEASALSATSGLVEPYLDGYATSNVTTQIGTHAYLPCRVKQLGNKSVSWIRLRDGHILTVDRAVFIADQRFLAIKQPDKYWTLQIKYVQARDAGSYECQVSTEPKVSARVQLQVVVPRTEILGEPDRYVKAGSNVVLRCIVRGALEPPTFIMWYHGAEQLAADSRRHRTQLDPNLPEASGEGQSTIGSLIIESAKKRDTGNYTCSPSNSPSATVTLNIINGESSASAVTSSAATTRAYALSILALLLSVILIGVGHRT

[2] = molecular target: T2, DIP-γ (Dpr Interacting Protein gamma), extracellular region, Q9VAR6; details: chain shown with the change; 25 °C; 10 mM Tris-HCl, pH 7.2, 150 mM NaCl, 1 mM EDTA, 1 mg mL−1 BSA, 0.01% (v/v) Tween-20; analyte 81 to 0.012 μM, three-fold dilution series
T2 chain: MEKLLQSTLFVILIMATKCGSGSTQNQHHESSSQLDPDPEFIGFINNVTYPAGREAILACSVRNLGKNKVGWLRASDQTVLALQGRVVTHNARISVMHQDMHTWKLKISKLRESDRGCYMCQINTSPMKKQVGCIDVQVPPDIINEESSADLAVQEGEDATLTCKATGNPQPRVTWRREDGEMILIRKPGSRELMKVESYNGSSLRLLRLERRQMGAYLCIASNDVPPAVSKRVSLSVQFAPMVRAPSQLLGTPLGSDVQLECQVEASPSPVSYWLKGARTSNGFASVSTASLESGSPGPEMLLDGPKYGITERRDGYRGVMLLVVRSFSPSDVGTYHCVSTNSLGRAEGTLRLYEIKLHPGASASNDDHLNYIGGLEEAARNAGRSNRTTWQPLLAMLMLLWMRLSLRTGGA

[3] = molecular target: T3, DIP-α (Dpr Interacting Protein alpha), extracellular region, Q9W4R3; details: chain shown with the change; 25 °C; 10 mM Tris-HCl, pH 7.2, 150 mM NaCl, 1 mM EDTA, 1 mg mL−1 BSA, 0.01% (v/v) Tween-20; analyte 81 to 0.012 μM, three-fold dilution series; parent: 0.0 kcal/mol
T3 chain: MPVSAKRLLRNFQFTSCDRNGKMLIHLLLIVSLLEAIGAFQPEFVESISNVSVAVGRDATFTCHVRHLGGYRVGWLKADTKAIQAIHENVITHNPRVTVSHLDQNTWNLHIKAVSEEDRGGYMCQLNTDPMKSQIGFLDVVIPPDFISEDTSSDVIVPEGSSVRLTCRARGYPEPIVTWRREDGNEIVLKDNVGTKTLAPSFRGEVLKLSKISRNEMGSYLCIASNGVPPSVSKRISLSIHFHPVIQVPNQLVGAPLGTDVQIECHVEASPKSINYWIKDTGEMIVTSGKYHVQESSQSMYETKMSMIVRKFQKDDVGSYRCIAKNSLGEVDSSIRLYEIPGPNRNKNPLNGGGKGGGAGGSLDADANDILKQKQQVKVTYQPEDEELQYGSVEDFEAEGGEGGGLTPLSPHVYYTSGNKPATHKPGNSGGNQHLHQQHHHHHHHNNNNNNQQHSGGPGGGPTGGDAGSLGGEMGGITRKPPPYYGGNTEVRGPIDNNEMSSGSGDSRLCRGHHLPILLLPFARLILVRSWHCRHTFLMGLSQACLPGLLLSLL

ddG [1]: 0.9 kcal/mol
B1: DIP-γ (Dpr Interacting Protein gamma), extracellular region, Q9VAR6 D77T (protein)
chain: T2 chain with D77T

ddG [2]: 0.6 kcal/mol
B2: Dpr11 (Defective proboscis extension response 11), extracellular region, Q8MRE6 K207V (protein)
chain: T1 chain with K207V

ddG [3]: < -2 kcal/mol
B3: Dpr11 (Defective proboscis extension response 11), extracellular region, Q8MRE6 K207V; E205Q; G157L (protein)
chain: T1 chain with G157L, E205Q, K207V

ddG [2]: 1.7 kcal/mol
B4: Dpr11 (Defective proboscis extension response 11), extracellular region, Q8MRE6 E205Q; K207V (protein)
chain: T1 chain with E205Q, K207V
